Source: patent US11433099B2, “Immunotherapy with B*08 restricted peptides and combination of peptides against cancers and related methods” (Immatics Biotechnologies GmbH, priority 2018, dated 2022)

The substances below were run on CD8+ T cells of healthy HLA-B*08 donors (assay: In vitro T-cell priming assay with aAPCs loaded with peptide/MHC complexes and anti-CD28 antibody, pMHC multimer readout). Settings: Table 10A; in vitro immunogenicity, HLA-B*08 pMHC, healthy donors.
Assay type: cell-based, human
Text: In order to obtain information regarding the immunogenicity of the TUMAPs of the present invention, the inventors performed investigations using an in vitro T-cell priming assay based on repeated stimulations of CD8+ T cells with artificial antigen presenting cells (aAPCs) loaded with peptide/MHC complexes and anti-CD28 antibody.
In order to perform in vitro stimulations by artificial antigen presenting cells loaded with peptide-MHC complex (pMHC) and anti-CD28 antibody, the inventors first isolated CD8+ T cells from fresh HLA-B*08 leukapheresis products via positive selection using CD8 microbeads (Miltenyi Biotec, Bergisch-Gladbach, Germany) of healthy donors obtained from the University clinics Mannheim, Germany, after informed consent.
PBMCs and isolated CD8+ lymphocytes were incubated in T-cell medium (TCM) until use consisting of RPMI-Glutamax (Invitrogen, Karlsruhe, Germany) supplemented with 10% heat inactivated human AB serum (PAN-Biotech, Aidenbach, Germany), 100 U/ml Penicillin/100 μg/ml Streptomycin (Cambrex, Cologne, Germany), 1 mM sodium pyruvate (CC Pro, Oberdorla, Germany), 20 μg/ml Gentamycin (Cambrex). 2.5 ng/ml IL-7 (PromoCell, Heidelberg, Germany) and 10 U/ml IL-2 (Novartis Pharma, Nornberg, Germany) were also added to the TCM at this step.
Generation of pMHC/anti-CD28 coated beads, T-cell stimulations and readout was performed in a highly defined in vitro system using four different pMHC molecules per stimulation condition and 8 different pMHC molecules per readout condition.
The purified co-stimulatory mouse IgG2a anti human CD28 Ab 9.3 (Jung et al., 1987) was chemically biotinylated using Sulfo-N-hydroxysuccinimidobiotin as recommended by the manufacturer (Perbio, Bonn, Germany). Beads used were 5.6 μm diameter streptavidin coated polystyrene particles (Bangs Laboratories, Illinois, USA).
800.000 beads/200 μl were coated in 96-well plates in the presence of 4×12.5 ng different biotin-pMHC, washed and 600 ng biotin anti-CD28 were added subsequently in a volume of 200 μl. Stimulations were initiated in 96-well plates by co-incubating 1×10^6 CD8+ T cells with 2×10^5 washed coated beads in 200 μl TCM supplemented with 5 ng/ml IL-12 (PromoCell) for 3 days at 37° C. Half of the medium was then exchanged by fresh TCM supplemented with 80 U/ml IL-2 and incubating was continued for 4 days at 37° C. This stimulation cycle was performed for a total of three times. For the pMHC multimer readout using 8 different pMHC molecules per condition, a two-dimensional combinatorial coding approach was used as previously described (Andersen et al., 2012) with minor modifications encompassing coupling to 5 different fluorochromes. Finally, multimeric analyses were performed by staining the cells with Live/dead near IR dye (Invitrogen, Karlsruhe, Germany), CD8-FITC antibody clone SK1 (BD, Heidelberg, Germany) and fluorescent pMHC multimers. For analysis, a BD LSRII SORP cytometer equipped with appropriate lasers and filters was used. Peptide specific cells were calculated as percentage of total CD8+ cells. Evaluation of multimeric analysis was done using the FlowJo software (Tree Star, Oregon, USA). In vitro priming of specific multimer+CD8+ lymphocytes was detected by comparing to negative control stimulations.

Row | Substance | Wells positive [%]
1 | 278 (RAQLKLVAL; listed as Homo sapiens) [compound 278] | + (<20% = +)
2 | 283 (MAQFKEISL; listed as Homo sapiens) [compound 283] | ++++ (>=70% = ++++)
3 | 284 (ELKKKEYEEL; listed as Homo sapiens) [compound 284] | + (<20% = +)
4 | 285 (EAMLRNKEL; listed as Homo sapiens) [compound 285] | + (<20% = +)

Each substance was assayed against HLA-B*08:01 (Homo sapiens, UniProt P01889) (assay: MHC binding assay (UV-ligand exchange, beta2m ELISA)). Settings: MHC class I binding score; binding to HLA-B*08:01 ranged by peptide exchange yield (UV-ligand exchange, β2m ELISA).
Text: Candidate peptides for T cell based therapies according to the present invention were further tested for their MHC binding capacity (affinity). The individual peptide-MHC complexes were produced by UV-ligand exchange, where a UV-sensitive peptide is cleaved upon UV-irradiation and exchanged with the peptide of interest as analyzed. Only peptide candidates that can effectively bind and stabilize the peptide-receptive MHC molecules prevent dissociation of the MHC complexes. To determine the yield of the exchange reaction, an ELISA was performed based on the detection of the light chain (β2m) of stabilized MHC complexes. The assay was performed as generally described in Rodenko et al. (Rodenko et al., 2006).
96 well MAXISorp plates (NUNC) were coated over night with 2 ug/ml streptavidin in PBS at room temperature, washed 4× and blocked for 1 h at 37° C. in 2% BSA containing blocking buffer. Refolded HLA-A*02:01/MLA-001 monomers served as standards, covering the range of 15-500 ng/ml. Peptide-MHC monomers of the UV-exchange reaction were diluted 100-fold in blocking buffer. Samples were incubated for 1 h at 37° C., washed four times, incubated with 2 ug/ml HRP conjugated anti-β2m for 1 h at 37° C., washed again and detected with TMB solution that is stopped with […]. Absorption was measured at 450 nm. Candidate peptides that show a high exchange yield (preferably higher than 50%, most preferred higher than 75%) are generally preferred for a generation and production of antibodies or fragments thereof, and/or T cell receptors or fragments thereof, as they show sufficient avidity to the MHC molecules and prevent dissociation of the MHC complexes.

Row | Substance | Peptide exchange
5 | 202 (RIPEKASFL; listed as Homo sapiens) [compound 202] | ++ (20% = ++)
6 | 203 (DVYTQVSAF; listed as Homo sapiens) [compound 203] | ++ (20% = ++)
7 | 204 (MSPLLRSI; listed as Homo sapiens) [compound 204] | ++ (20% = ++)
8 | 205 (YMQYGFLSM; listed as Homo sapiens) [compound 205] | ++ (20% = ++)
9 | 206 (MEFPNKFNTL; listed as Homo sapiens) [compound 206] | ++ (20% = ++)
10 | 207 (LRKRKSPE; listed as Homo sapiens) [compound 207] | ++ (20% = ++)
11 | 210 (QPNTHQLL; listed as Homo sapiens) [compound 210] | ++ (20% = ++)
12 | 211 (DVISKGVSL; listed as Homo sapiens) [compound 211] | ++ (20% = ++)
13 | 214 (DAPRHRLL; listed as Homo sapiens) [compound 214] | ++ (20% = ++)
14 | 215 (NPLIEIISI; listed as Homo sapiens) [compound 215] | ++ (20% = ++)
15 | 216 (EARPPSPAV; listed as Homo sapiens) [compound 216] | ++ (20% = ++)
16 | 218 (DNHPRLVTL; listed as Homo sapiens) [compound 218] | +++ (50% = +++)
17 | 222 (AQKAELIAL; listed as Homo sapiens) [compound 222] | ++ (20% = ++)
18 | 225 (MPKRAHWGA; listed as Homo sapiens) [compound 225] | +++ (50% = +++)
19 | 228 (TLRAYVLAL; listed as Homo sapiens) [compound 228] | +++ (50% = +++)
20 | 231 (GEKLLRPSL; listed as Homo sapiens) [compound 231] | ++ (20% = ++)
21 | 232 (KLYIHRVTL; listed as Homo sapiens) [compound 232] | ++ (20% = ++)
22 | 234 (VFRVGISF; listed as Homo sapiens) [compound 234] | ++ (20% = ++)
23 | 235 (SPNSLVTIL; listed as Homo sapiens) [compound 235] | +++ (50% = +++)
24 | 237 (LPLDSRYVTL; listed as Homo sapiens) [compound 237] | +++ (50% = +++)
25 | 238 (IPLAIARL; listed as Homo sapiens) [compound 238] | +++ (50% = +++)
26 | 239 (SEPVMRVTL; listed as Homo sapiens) [compound 239] | ++ (20% = ++)
27 | 240 (KVIDRKVEL; listed as Homo sapiens) [compound 240] | ++ (20% = ++)
28 | 243 (EGVPPGTVL; listed as Homo sapiens) [compound 243] | +++ (50% = +++)
29 | 244 (HALPPYITVL; listed as Homo sapiens) [compound 244] | ++ (20% = ++)
30 | 245 (GPRGPSSGHPL; listed as Homo sapiens) [compound 245] | ++ (20% = ++)
31 | 248 (SEVNKHETAL; listed as Homo sapiens) [compound 248] | ++ (20% = ++)
32 | 249 (QQIDRVVEV; listed as Homo sapiens) [compound 249] | ++ (20% = ++)
33 | 251 (DAAAFFKSV; listed as Homo sapiens) [compound 251] | ++ (20% = ++)

Second part, the substance after the results:

Row | Peptide exchange | Substance
34 | ++ (20% = ++) | 200 (VAAARAVPV; listed as Homo sapiens) [compound 200]
35 | +++ (50% = +++) | 201 (TASAMQHVL; listed as Homo sapiens) [compound 201]
36 | ++ (20% = ++) | 208 (LPPPQPLSL; listed as Homo sapiens) [compound 208]
37 | ++ (20% = ++) | 209 (SRFGKFVQL; listed as Homo sapiens) [compound 209]
38 | ++ (20% = ++) | 212 (EEYKFPSL; listed as Homo sapiens) [compound 212]
39 | ++ (20% = ++) | 213 (FPSLFINQF; listed as Homo sapiens) [compound 213]
40 | ++ (20% = ++) | 217 (ETIKGHSVRL; listed as Homo sapiens) [compound 217]
41 | ++ (20% = ++) | 219 (VRNPKILIL; listed as Homo sapiens) [compound 219]
42 | ++ (20% = ++) | 220 (LAVRHLSL; listed as Homo sapiens) [compound 220]
43 | +++ (50% = +++) | 221 (SLKEELLSL; listed as Homo sapiens) [compound 221]
44 | ++ (20% = ++) | 223 (DVSARKLRV; listed as Homo sapiens) [compound 223]
45 | ++ (20% = ++) | 224 (LPYPPQKVV; listed as Homo sapiens) [compound 224]
46 | +++ (50% = +++) | 226 (DIYEVAVSL; listed as Homo sapiens) [compound 226]
47 | ++ (20% = ++) | 227 (SRFPGMSVL; listed as Homo sapiens) [compound 227]
48 | ++ (20% = ++) | 229 (DTHTNTYYL; listed as Homo sapiens) [compound 229]
49 | ++ (20% = ++) | 230 (DVYFHHVL; listed as Homo sapiens) [compound 230]
50 | ++ (20% = ++) | 233 (DVKLVFVM; listed as Homo sapiens) [compound 233]
51 | ++ (20% = ++) | 236 (STLKKSLEI; listed as Homo sapiens) [compound 236]
52 | ++ (20% = ++) | 241 (NAYEAPSI; listed as Homo sapiens) [compound 241]
53 | ++ (20% = ++) | 242 (KPQSLQLVL; listed as Homo sapiens) [compound 242]
54 | ++ (20% = ++) | 246 (RLLQKSKEL; listed as Homo sapiens) [compound 246]
55 | ++ (20% = ++) | 247 (TPEPSVHAL; listed as Homo sapiens) [compound 247]
56 | ++ (20% = ++) | 250 (AARAPPQAL; listed as Homo sapiens) [compound 250]
